Here are results for 13 molecules from patent publication US20260193335A1 (ZOETIS SERVICES, published 2026).

Test [1] deals with T1, Feline FcRn (complex of FcRn-α subunit and β-microglobulin, C-terminal His tag) (feline, UniProt A0ABI7ZNY9 23-296; Q5MGS7 21-118).
T1 construct: treated here as one molecule
The test can be described thus: SPR Biacore, FcRn amine-coupled on CM5, pH 6. On the procedure:
(§1) Feline FcRn was isolated, prepared and mutant Fc IgGs were assayed against feline FcRn according to Strietzelg et. al. Standard RACE PCR was used to amplify feline FcRn-α subunit and β-microglobulin. FcRn-α subunit and β-microglobulin were co-transfected into HEK 293 cells and the FcRn complex was purified by IMAC affinity purification via the c-terminal His tag. KD's were measured by Biacore 3000 or Biacore T200 (GE Healthcare, Pittsburgh, PA, USA) using a CM5 sensor chip.
(§2) FcRn was immobilized on the surface of the sensor using the standard amine immobilization method to reach the desired surface density. HBS-EP was used as the immobilization running buffer and 10 mM MES; 150 mM NaCl; 0.005% Tween20; 0.5 mg/mL BSA; pH6 and pH7.2 and PBS; 0.005% Tween20; 0.5 mg/mL BSA; pH7.4 were used for method running buffers and titrations. Fc mutant IgGs were flowed over receptor surfaces and affinity was determined using Scrubber2 software analysis (BioLogic Software Pty, Ltd., Campbell, Australia) or T200 evaluation software (Table 2). Blank runs containing buffer only were subtracted out from all runs. Flow cells were regenerated using 50 mM Tris pH8. Runs were performed at 15° C.
(SPR reads the build-up and loss of mass on a sensor chip optically.)

The target in test [2] is T1, Feline FcRn (complex of FcRn-α subunit …). Nature of the test: SPR Biacore, FcRn amine-coupled on CM5, pH 7.2. On the procedure: as §1, §2
Test [3] has the same target. The test can be described thus: SPR Biacore, FcRn on sensor, pH 6; pH 6. On the procedure:
As discussed in the above Example section, Feline FcRn was isolated, prepared and mutant Fc IgGs were assayed against feline FcRn according to Strietzelg et. al. Standard RACE PCR was used to amplify feline FcRn-α subunit and β-microglobulin. FcRn-α subunit and β-microglobulin were co-transfected into HEK 293 cells and the FcRn complex was purified by IMAC affinity purification via the c-terminal His tag. KD's were measured by Biacore 3000 or Biacore T200 (GE Healthcare, Pittsburgh, PA, USA) using a CM5 sensor chip.
FcRn was captured on the surface of the sensor using a modified SA capture method. 10 mM MES; 150 mM NaCl; 0.005% Tween20; 0.5 mg/mL BSA; pH6 was used as capture, method running buffer and titrations. 1×HBS-P, 0.5 mg/mL BSA; pH7.4 was also used for method running buffer and titrations. Fc mutant IgGs were flowed over receptor surfaces and affinity was determined using T200 evaluation software or Biacore Insight Evaluation software. Blank runs containing buffer only were subtracted out from all runs. Flow cells were regenerated using 50 mM Tris pH8 or pH9. Runs were performed at 15° C.

Numbering of substitutions follows the chain as printed. Numbers in names are those of the source.

B1: Anti-NGF antibody of Table 3, S434G (antibody)
heavy: DVQLVESGGDLVKPGGSLRLTCVASGFTYSNYWMHWVRQAPGKGLQWVARIDPYGGGTKHNEKFKRRFTISRDNAKNTLYLQMNSLKTEDTATYYCVRSGYDYYFDVWGQGTLVTVSSASTTAPSVFPLAPSCGTTSGATVALACLVLGYFPEPVTVSWNSGALTSGVHTFPAVLQASGLYSLSSMVTVPSSRWLSDTFTCNVAHPPSNTKVDKTVRKTDHPPGPKPCDCPKCPPPEMLGGPSIFIFPPKPKDTLSISRTPEVTCLVVDLGPDDSDVQITWFVDNTQVYTAKTSPREEQFNSTYRVVSVLPILHQDWLKGKEFKCKVNSKSLPSPIERTISKAKGQPHEPQVYVLPPAQEELSRNKVSVTCLIKSFHPPDIAVEWEITGQPEPENNYRTTPPQLDSDGTYFVYSKLSVDRSHWQRGNTYTCSVSHEALHGHHTQKSLTQSPGK
light: EIQMTQSPSSLSASPGDRVTITCRASENIYSFLAWYQQKPGKVPKLLIYNANTLAEGVPSRFSGSGSGTDFTLTISSLEPEDAATYYCQHHFGTPFTFGSGTKLEIKRSDAQPSVFLFQPSLDELHTGSASIVCILNDFYPKEVNVKWKVDGVVQNKGIQESTTEQNSKDSTYSLSSTLTMSSTEYQSHEKFSCEVTHKSLASTLVKSFQRSECQRE
In the case of B1, the equilibrium dissociation constant (Kd) in test [1] was determined as 9.58 nM; in test [2] it was 21.6 nM.

B2: Anti-NGF antibody of Table 3, S434N (antibody)
heavy: B1 heavy with G440N
light: B1 light
On to B2, for which the values for the Kd in test [1] and in test [2] were 6.94 nM and 0.00847 nM, respectively.

B3: Anti-NGF antibody of Table 3, S434L (antibody)
heavy: B1 heavy with G440L
light: B1 light
For B3, the Kd came out at 8.67 nM in test [1] and 6.57 nM in test [2].

B4: Anti-NGF antibody of Table 3, S434K (antibody)
heavy: B1 heavy with G440K
light: B1 light
Turning to B4, the dissociation constant (Kd) is 6.76 nM in test [1] and 5.06 nM in test [2].

B5: Anti-NGF antibody of Table 3, S434I (antibody)
heavy: B1 heavy with G440I
light: B1 light
For the molecule B5, the Kd was 14.4 nM in test [1] and 18.1 nM in test [2].

B6: Anti-NGF antibody of Table 3, S434M (antibody)
heavy: B1 heavy with G440M
light: B1 light
As to B6, the Kd was 2.8 nM in test [1] and 1.92 nM in test [2].

B7: Anti-NGF antibody of Table 3, S434P (antibody)
heavy: B1 heavy with G440P
light: B1 light
Take B7: the Kd was determined as 5.64 nM in test [1] and 0.0157 nM in test [2].

B8: mAb6 anti-TGFβ antibody ZTS-120-7, wildtype (antibody)
heavy: DVQLVESGGDLVKPGGSLRLTCVASGYTFSSNVMHWVRQAPGKGLQWVAYVIPIVDIAYYADSVKGRFTISIDNSKNTLYLQMNSLKTEDTATYYCARTLGLVLDAMDYWGQGTLVTVSSASTTAPSVFPLAPSCGTTSGATVALACLVLGYFPEPVTVSWNSGALTSGVHTFPAVLQASGLYSLSSMVTVPSSRWLSDTFTCNVAHPPSNTKVDKTVRKTDHPPGPKPCDCPKCPPPEMLGGPSIFIFPPKPKDTLSISRTPEVTCLVVDLGPDDSDVQITWFVDNTQVYTAKTSPREEQFNSTYRVVSVLPILHQDWLKGKEFKCKVNSKSLPSPIERTISKAKGQPHEPQVYVLPPAQEELSRNKVSVTCLIKSFHPPDIAVEWEITGQPEPENNYRTTPPQLDSDGTYFVYSKLSVDRSHWQRGNTYTCSVSHEALHSHHTQKSLTQSPGK
light: DIVLTQPPSLSVNLGQTARITCRASQSLGSSYLAWYQQKPGQAPKLVTYGASSRAPGIPDRFSGTNSGITATLTISGARAEDEADYYCQQYADSPITFGQGTKLEIK
notes: also called mAb6 ID No. 24
In test [3], B8 came in with a Kd of 30.2 nM.

B9: mAb6 anti-TGFβ antibody ZTS-120-9, wildtype (antibody)
heavy: B8 heavy
light: DIVMTQSPGSLAGSPGQQVTMNCRASQSLGSSYLAWYQQKPGQHPELLIYGASSRAPGVPDRFSGSGSGTDFTLTISNLQAEDVANYYCQQYADSPITFGQGTKLEIK
notes: also called mAb6 ID No. 28
In turn, B9 had an equilibrium dissociation constant (Kd) in test [3] of 44.3 nM.

B10: mAb6 anti-TGFβ antibody ZTS-120-4, wildtype (antibody)
heavy: QVLLVQSGADVRKPGASVKIFCKASGYTFSSNVMHWVRQTPAQGFEWMGSVIPIVDIATYARRFQGRLVLTADTSTNTAYMELRSLKSADTAVYYCARTLGLVLDAMDYWGQGSLVTVSSASTTAPSVFPLAPSCGTTSGATVALACLVLGYFPEPVTVSWNSGALTSGVHTFPAVLQASGLYSLSSMVTVPSSRWLSDTFTCNVAHPPSNTKVDKTVRKTDHPPGPKPCDCPKCPPPEMLGGPSIFIFPPKPKDTLSISRTPEVTCLVVDLGPDDSDVQITWFVDNTQVYTAKTSPREEQFNSTYRVVSVLPILHQDWLKGKEFKCKVNSKSLPSPIERTISKAKGQPHEPQVYVLPPAQEELSRNKVSVTCLIKSFHPPDIAVEWEITGQPEPENNYRTTPPQLDSDGTYFVYSKLSVDRSHWQRGNTYTCSVSHEALHSHHTQKSLTQSPGK
light: EIQMTQSPSSLSASPGDRVTITCRASQSLGSSYLAWYQQKPGKVPKLLIYGASSRAPGVPSRFSGSGSGTDFTLTISSLEPEDAATYYCQQYADSPITFGQGTKLEIK
notes: also called mAb6 ID No. 18
Turning to B10, the Kd in test [3] was 19.6 nM.

B11: mAb6 anti-TGFβ antibody ZTS-120-8, wildtype (antibody)
heavy: B10 heavy with S30T, M34I, H35S, S50G, T59N, R62Q, Q65K, R98S
light: B9 light
notes: also called mAb6 ID No. 26
With B11, in test [3], binding was characterised by a dissociation constant (Kd) of 35.7 nM.

B12: mAb6 anti-TGFβ antibody ZTS-120-6, wildtype (antibody)
heavy: B10 heavy
light: B8 light
notes: also called mAb6 ID No. 22
The molecule B12 yielded a Kd in test [3] of 14.3 nM.

B13: mAb6 anti-TGFβ antibody ZTS-120-5, wildtype (antibody)
heavy: B8 heavy
light: B10 light
notes: also called mAb6 ID No. 20
In the case of B13, in test [3], the dissociation constant (Kd) worked out at 31.6 nM.

One may read the Kd as a measure of binding affinity in units of concentration. Low readings indicate a tighter complex, high ones a looser complex.
